Article PMC2275097
Read-outs that look alike come from different tables or passages of the source.

T1: hLon (human Lon protease) (Homo sapiens, UniProt P36776 68-959)
T1 sequence: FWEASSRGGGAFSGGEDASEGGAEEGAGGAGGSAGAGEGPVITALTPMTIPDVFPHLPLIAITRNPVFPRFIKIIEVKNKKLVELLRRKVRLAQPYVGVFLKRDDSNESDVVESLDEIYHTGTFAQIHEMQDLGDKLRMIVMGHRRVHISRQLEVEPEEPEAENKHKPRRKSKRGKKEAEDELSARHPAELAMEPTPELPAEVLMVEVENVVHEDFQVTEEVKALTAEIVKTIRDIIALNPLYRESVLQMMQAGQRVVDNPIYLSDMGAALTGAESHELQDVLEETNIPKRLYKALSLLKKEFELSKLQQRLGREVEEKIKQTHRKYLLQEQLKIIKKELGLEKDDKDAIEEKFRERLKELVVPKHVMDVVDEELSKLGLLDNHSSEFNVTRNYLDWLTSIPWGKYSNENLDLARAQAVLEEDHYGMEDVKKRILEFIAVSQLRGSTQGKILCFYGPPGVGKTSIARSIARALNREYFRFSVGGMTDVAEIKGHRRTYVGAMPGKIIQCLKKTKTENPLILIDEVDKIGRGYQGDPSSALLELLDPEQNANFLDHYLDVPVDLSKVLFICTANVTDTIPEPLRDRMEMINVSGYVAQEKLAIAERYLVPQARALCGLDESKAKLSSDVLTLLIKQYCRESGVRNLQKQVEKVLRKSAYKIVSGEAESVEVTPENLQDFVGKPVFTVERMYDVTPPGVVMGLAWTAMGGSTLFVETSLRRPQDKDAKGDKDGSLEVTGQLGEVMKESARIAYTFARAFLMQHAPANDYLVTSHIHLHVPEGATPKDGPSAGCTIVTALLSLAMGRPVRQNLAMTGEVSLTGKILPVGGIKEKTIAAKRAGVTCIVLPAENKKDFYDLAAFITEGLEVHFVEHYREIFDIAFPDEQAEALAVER


Columns and labels:
[1] = biological target: T1, hLon (human Lon protease); assay: ITC
[2] = biological target: T1, hLon (human Lon protease); assay: ITC; remark: listed apart in the source
[3] = biological target: T1, hLon (human Lon protease); assay: ITC; remark: listed apart in the source
[4] = biological target: T1, hLon (human Lon protease); assay: ITC; remark: listed apart in the source
[5] = biological target: T1, hLon (human Lon protease); assay: ITC; remark: listed apart in the source
[6] = biological target: T1, hLon (human Lon protease); assay: competition
[7] = biological target: T1, hLon (human Lon protease); assay: ITC; remark: listed apart in the source

Binder	Ka [1]	Kd [2]	Ka [3]	Ka [4]	Ka [5]	binding result [6]	Ka [7]
TGGGGGGT (structured_DNA) [TG6T]	1.24 ± 0.58 10^5 M^-1	7.35 µM	1.36 ± 0.22 10^5 M^-1	1.35 ± 0.89 10^5 M^-1	3.48 ± 0.36 10^5 M^-1	–	–
GTGTTAGTTGGGGGGTGA (structured_DNA) [LSPas18]	–	–	–	–	–	binds	–
AATAATGTGTTAGTTGGGGGGTGA (structured_DNA) [LSPas]	–	–	3.03 ± 0.83 10^5 M^-1	2.45 ± 0.43 10^5 M^-1	2.6 ± 0.72 10^5 M^-1	–	2.11 ± 0.11 10^5 M^-1
